The record followed here is patent US20200017583A1 (Daiichi Sankyo, published 2020).

Where a chain is given by its changes, count along the chain named. Where no end group is shown, it is not given here. The star is where a group is joined. Biotin = O=C1N[C@H]2[C@H](CS[C@H]2CCCCC(=O)*)N1

The target of assay [1] is T1, human GPR20 protein (human, UniProt Q99678 1-358).
T1 construct: membrane fraction on SDS-PAGE for the Western blot; The same entry is used for the endogenous GPR20 stained in GIST cell lines and clinical GIST tissue; also called hGPR20; G protein-coupled receptor 20
Briefly: immunohistochemistry on paraffin-embedded GIST430 and GIST430/654 preparations, PC-3 as GPR20-negative control, DAB.
Experimental: Deparaffinization and antigen retrieval were carried out at 97° C. for 40 minutes with an antigen retrieval solution (Target Retrieval Solution High pH; manufactured by Dako/Agilent Technologies Inc.) using a pretreatment system for Autostainer Link (PT Link; manufactured by Dako/Agilent Technologies Inc.). Subsequent staining procedures were carried out at room temperature using an automatic staining apparatus (Dako Autostainer Link 48; manufactured by Dako/Agilent Technologies Inc.). After washing once with EnVision FLEX WASH BUFFER (manufactured by Dako/Agilent Technologies Inc.), Peroxidase Block 3% H2O2 (manufactured by Dako/Agilent Technologies Inc.) was added to the cells, which were then incubated for 5 minutes and washed once with EnVision FLEX WASH BUFFER. Protein Block serum free (manufactured by Dako/Agilent Technologies Inc.) was added to the cells, which were then incubated for 30 minutes. The solution was removed by air blow. A rat monoclonal anti-GPR20 antibody, a rabbit chimeric anti-GPR20 antibody or a rabbit type anti-GPR20 antibody was diluted into 1.0 μg/mL to 10 μg/mL with REAL Antibody Diluent (manufactured by Dako/Agilent Technologies Inc.) and reacted with the cells for 30 minutes.
DAKO Liquid DAB+Substrate Chromogen System was added to the cells, which were then incubated for a total of 10 minutes and then washed once with EnVision FLEX WASH BUFFER. EnVision FLEX Hematoxylin was added to the cells, which were incubated for 5 minutes and then washed a total of three times with EnVision FLEX WASH BUFFER and ion-exchanged water.

Assay [2] deals with T2, GPR20 fragment peptide GLEVPLFHLFARL (human, SMILES …).
T2 construct: Captured on streptavidin sensor chips
T2 peptide: Biotin-GLEVPLFHLFARL-NH2
In words: BLI (Octet RED384), peptide on streptavidin sensor, antibody as analyte, 1:1 model. The source says:
(§1) For the detailed analysis of the epitope, a peptide consisting of amino acid positions 29 to 48 of GPR20, and peptides in which a terminal amino acid residue was continuously truncated one by one from this peptide, were synthesized, and then N-terminally biotinylated and C-terminally amidated to produce a GPR20 fragment peptide library (Sigma-Aldrich Japan G.K.). […] PBS-T was used as a buffer solution, and the sensor chips used were streptavidin sensor chips (manufactured by Pall ForteBio Corp.). […] Subsequently, the sensor chip was dipped in the buffer solution, and a dissociation phase was monitored for 270 seconds. […] The data was analyzed using 1:1 binding models to calculate association rate constant ka, dissociation rate constant kd and dissociation constant KD (KD=kd/ka).
Background: Biolayer interferometry detects binding as a change in optical thickness at a sensor tip.

Assay [3] deals with T3, GPR20 fragment peptide GLEVPLFHLFARLDEEL (human, SMILES …).
T3 construct: Captured on streptavidin sensor chips
T3 peptide: Biotin-GLEVPLFHLFARLDEEL-NH2
The assay is described as above.
From the text: as §1

Assay [4] concerns the target T4, GPR20 fragment peptide GLEVPLFHLFARLD (human, SMILES …).
T4 construct: Captured on streptavidin sensor chips
T4 peptide: Biotin-GLEVPLFHLFARLD-NH2
The description is as above.
From the text: as §1

Assay [5] deals with T5, GPR20 fragment peptide GLEVPLFHLFARLDEE (human, SMILES …).
T5 construct: Captured on streptavidin sensor chips
T5 peptide: Biotin-GLEVPLFHLFARLDEE-NH2
The assay is described as above.
From the text: as §1

In assay [6] the target is T6, GPR20 fragment peptide GLEVPLFHLFARLDEELHGT (human, N-terminally biotinylated and C-terminally amidated).
T6 construct: Captured on streptavidin sensor chips; also called peptide consisting of amino acid positions 29 to 48 of GPR20
T6 peptide: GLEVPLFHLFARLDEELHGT
The assay is described as above.
From the text: as §1

In assay [7] the target is T7, GPR20 fragment peptide VPLFHLFARLDEEL (human, SMILES …).
T7 construct: Captured on streptavidin sensor chips
T7 peptide: Biotin-VPLFHLFARLDEEL-NH2
The description is as above.
From the text: as §1

Assay [8] concerns the target T8, GPR20 fragment peptide GLEVPLFHLFARLDE (human, SMILES …).
T8 construct: Captured on streptavidin sensor chips
T8 peptide: Biotin-GLEVPLFHLFARLDE-NH2
Described as above.
From the text: as §1

In assay [9] the target is T9, GPR20 fragment peptide GLEVPLFHLFAR (human, SMILES …).
T9 construct: Captured on streptavidin sensor chips
T9 peptide: Biotin-GLEVPLFHLFAR-NH2
The description is as above.
From the text: as §1

Assay [10] addresses T10, GPR20 fragment peptide LEVPLFHLFARLDEEL (human, SMILES …).
T10 construct: Captured on streptavidin sensor chips
T10 peptide: Biotin-LEVPLFHLFARLDEEL-NH2
The description is as above.
From the text: as §1

In assay [11] the target is T11, GPR20 fragment peptide EVPLFHLFARLDEEL (human, SMILES …).
T11 construct: Captured on streptavidin sensor chips
T11 peptide: Biotin-EVPLFHLFARLDEEL-NH2
Described as above.
From the text: as §1

Assay [12] concerns the target T1, human GPR20 protein. In words: flow cytometry, hybridoma culture supernatant on 293T cells transiently expressing human GPR20 versus empty-vector 293T cells, anti-rat IgG FITC. The procedure: The cells were left standing at 4° C. for 1 hour. […] The cells were left standing at 4° C. for 1 hour.
Assay [13] deals with T12, C-terminally biotinylated synthetic peptide 1 consisting of amino acids at positions 1 to 48 from the … (human, C-terminally biotinylated).
T12 construct: Captured on NeutrAvidin plates
T12 peptide: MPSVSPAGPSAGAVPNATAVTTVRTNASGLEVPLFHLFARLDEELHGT
In words: peptide-ELISA, biotinylated peptide on NeutrAvidin plate, antibody at 1 µg/mL, anti-rat IgG-peroxidase, chemiluminescence. Background: In an ELISA, binding on a coated surface is turned into a signal by an enzyme label.
Experimental: NeutrAvidin (Pierce/Thermo Fisher Scientific Inc.) diluted to 1 μg/mL with PBS was added at 100 μL/well to 96-well Maxisorp plate (Nunc), and the plate was left standing overnight at 4° C. The solution was removed, and the plate was washed three times with 300 μL/well of PBS containing 0.05% Tween 20 (hereinafter, referred to as PBST). […] The plate was left standing at room temperature for 1 hour. The solution was removed from the plate, and each well was washed three times with PBST. Then, Blocker Casein in PBS (Thermo Fisher Scientific Inc.) was added at 100 μL/well, and the plate was left standing overnight at room temperature. The solution was removed, and each well was washed three times with PBST. […] The solution was removed, and each well was washed three times with PBST. Then, Anti-Rat IgG-Peroxidase antibody produced in rabbit (Jackson ImmunoResearch Laboratories, Inc.) 500-fold diluted with PBS was added at 100 μL/well, and the plate was left standing at room temperature for 1 hour. The solution was removed, and each well was washed three times with PBST. Then, SuperSignal ELISA Pico Chemiluminescent Substrate was added at 100 μl/well, and the plate was left standing at room temperature for 10 minutes, followed by the measurement of chemiluminescence using a plate reader (SpectraMax M3, Molecular Devices, LLC).

Assay [14] addresses T13, synthetic peptide 2 consisting of amino acid positions 30 to 48 of human GPR20 (human, also: biotinylated, position not given here).
T13 construct: Captured on NeutrAvidin plates
T13 peptide: LEVPLFHLFARLDEELHGT
The assay is described as above.

B1: rabbit type anti-GPR20 antibody OcH1L1 (antibody, V domains shown)
VH: EVQLKESGGGLVKPGGSLKLCCKASGFTFNNYWMTWIRQAPGKGLEWIASITNIDGSSYYASWVNGRFTLSRDNAQSTVCLQLNSLTAADTATYFCTRGSFDYWGQGTLVTVSS
VL: DIVMTQTPSPVSAAVGGTVTINCKASQNVNKYLNWFQQKPGQPPKLLIYNTNNLQTGVPSRFSGSGSGTDYTLTISGVQCDDAATYYCFQHVSWLTFGGGTEVVVKG
notes: CDR-grafted rabbit type form of 04-093; also called OcH01/OcL01
Consider B1, for which the binding result in the assay with human GPR20 protein [1] is on record as “binds”.

B2: rabbit type anti-GPR20 antibody OcH2L1 (antibody, V domains shown)
VH: B1 VH with C21S, A61P, S62D, W63S, N65K, L70I, V79L, C80Y
VL: B1 VL
notes: CDR-grafted rabbit type form of 04-093; also called OcH02/OcL01
Turning to B2, the binding result in the assay with human GPR20 protein [1] is “binds”.

B3: rat anti-human GPR20 antibody 04-093 (antibody, rat IgG2b)
heavy: EVQLVESGGGLVQPGRSLKLSCVASGFTFNNYWMTWIRQAPGKGLEWVASITNIDGSSYYPDSVKGRFTISRDNVKSTLYLQMNSLRSEDTATYYCTRGSFDYWGQGVMVTVSSAQTTAPSVYPLAPGCGDTTSSTVTLGCLVKGYFPEPVTVTWNSGALSSDVHTFPAVLQSGLYTLTSSVTSSTWPSQTVTCNVAHPASSTKVDKKVERRNGGIGHKCPTCPTCHKCPVPELLGGPSVFIFPPKPKDILLISQNAKVTCVVVDVSEEEPDVQFSWFVNNVEVHTAQTQPREEQYNSTFRVVSALPIQHQDWMSGKEFKCKVNNKALPSPIEKTISKPKGLVRKPQVYVMGPPTEQLTEQTVSLTCLTSGFLPNDIGVEWTSNGHIEKNYKNTEPVMDSDGSFFMYSKLNVERSRWDSRAPFVCSVVHEGLHNHHVEKSISRPPGK
light: DIQMTQSPSVLSASVGDRVTLNCKASQNVNKYLNWFQQKLGEPPKLLIYNTNNLQTGIPSRFSGSGSGTDYTLTISSLQPEDVATYFCFQHVSWLTFGSGTKLEIKRADAAPTVSIFPPSTEQLATGGASVVCLMNNFYPRDISVKWKIDGTERRDGVLDSVTDQDSKDSTYSMSSTLSLTKADYESHNLYTCEVVHKTSSSPVVKSFNRNEC
notes: Rat IgG2b, kappa, from a hybridoma; the full-length chains were made by linking them to known rat constant regions (IMGT IGHG2B*01, IGKC*01); also called 04-093 antibody; rat anti-GPR20 antibody 04-093
A word on the Kd: it is the concentration at which binding is half-saturated. Lower therefore signals a tighter complex. On to B3, for which the Kd in assay [2] is 1.1 nM; in [3], < 0.001 nM; in [4], < 0.001 nM; in [5], < 0.001 nM; in assay [6], < 0.001 nM; in assay [7], 5.7 nM. For the same molecule, the Kd in assay [8] was < 0.001 nM; in assay [9] it was 13 nM; in assay [10], < 0.001 nM; in assay [11], 1.1 nM. For the same molecule, the binding result (with human GPR20 protein [12]; in [13]; in assay [14]) was “binds” throughout.

B4: rabbit chimeric anti-GPR20 antibody OcChimera (antibody)
heavy: EVQLVESGGGLVQPGRSLKLSCVASGFTFNNYWMTWIRQAPGKGLEWVASITNIDGSSYYPDSVKGRFTISRDNVKSTLYLQMNSLRSEDTATYYCTRGSFDYWGQGVMVTVSSGQPKAPSVFPLAPCCGDTPSSTVTLGCLVKGYLPEPVTVTWNSGTLTNGVRTFPSVRQSSGLYSLSSVVSVTSSSQPVTCNVAHPATNTKVDKTVAPSTCSKPTCPPPELLGGPSVFIFPPKPKDTLMISRTPEVTCVVVDVSQDDPEVQFTWYINNEQVRTARPPLREQQFNSTIRVVSTLPITHQDWLRGKEFKCKVHNKALPAPIEKTISKARGQPLEPKVYTMGPPREELSSRSVSLTCMINGFYPSDISVEWEKNGKAEDNYKTTPAVLDSDGSYFLYNKLSVPTSEWQRGDVFTCSVMHEALHNHYTQKSISRSPGK
light: DIQMTQSPSVLSASVGDRVTLNCKASQNVNKYLNWFQQKLGEPPKLLIYNTNNLQTGIPSRFSGSGSGTDYTLTISSLQPEDVATYFCFQHVSWLTFGSGTKLEIKRDPVAPSVLLFPPSKEELTTGTATIVCVANKFYPSDITVTWKVDGTTQQSGIENSKTPQSPEDNTYSLSSTLSLTSAQYNSHSVYTCEVVQGSASPIVQSFNRGDC
notes: 04-093 variable regions on rabbit IGHG*02 and IGKC2*01 constant regions; also called rabbit chimeric antibody; OcHch/OcLch
With B4, the binding result in the assay with human GPR20 protein [1] is on record as “binds”.
